Assay results from US20220042033A1, “COMPOSITION AND METHOD FOR CONFERRING AND/OR ENHANCING TOLERANCE AGAINST HERBICIDES BY USING VARIANTS OF PPO” (FarmHannong Co., Ltd., priority 2017, published 2022).

Tested on: ApPPO1
Assay: Herbicide tolerance test of ApPPO1 wild type and variants in PPO-deficient E. coli BT3(ΔPPO), growth on herbicide-containing LB agar
Format: cell-based, Auxenochlorella protothecoides
Details: relative to ApPPO1 WT, dark; for Herbicide tolerance, flumioxazin: up to 100 μM (FIGS. 7-12); for Herbicide tolerance, tiafenacil: up to 200 μM (FIGS. 7-12); for Herbicide tolerance, sulfentrazone: up to 400 μM (FIGS. 7-12)
Experimental: Then, the extent of tolerance was evaluated.

| Molecule | Herbicide tolerance, flumioxazin | Herbicide tolerance, tiafenacil | Herbicide tolerance, sulfentrazone |
| --- | --- | --- | --- |
| R140A + V213C + Y422I: ApPPO1 (SEQ ID NO: 1) variant (protein, Synthetic (Protoporphyrinogen IX oxidase (ApPPO1) of Auxenochlorella protothecoides)) MPFTHLKPLNRLLGSPRARHPHVAPQAVSVTNTSTTRPGGRSSAPGIPGDAEYDVVIVGAGISGLTTAQALAKQYSDAVPRLLVTEARDCVGGNIITRRDGGYQWEEGPNSFQPSDAVLRAAVDAGVADRLVLGDPKAPAYVYWGGRLRATPSGPDVLTFDLLSLWGKLRAGLGAAGFKAPLPEREESVKEFVTRNLGEEVFQRLIEPFCSGCYAGDPAKLSMKAAFGKVYDLEKGGGSIVGGVLALMKARKQKPPEPRPADLPPKPKGQTVGSFDKGLVTLPSAIAEELGDRVVTGWKLESIDRSGDRFQLTYDTPQGRKKVSARSVALTVPAYTAASLLESRFPKLGKALSSIYYPPVASVALSYPETAILPERLGSDGHLAGFGQLHPRTQGVTTLGTIYASSLFPGRVPEGKVLLLSIFGGATNTRVATMPHGEIVSQVDKDLRKMLIRSDAESPHTVNVTVWPRAIPQFNVGHTDLIQEAKDDLASQGWQGLHLGGNYVAGVALGKCMEAGYKQAAELASHVKSLAT | +++++ (more than 10,000 fold higher tolerance) | +++++ (more than 10,000 fold higher tolerance) | ++++ (1,000-9,999 fold higher tolerance) |
| R140A + V213C + A215C + Y422I: ApPPO1 (SEQ ID NO: 1) variant (protein, Synthetic (Protoporphyrinogen IX oxidase (ApPPO1) of Auxenochlorella protothecoides)) MPFTHLKPLNRLLGSPRARHPHVAPQAVSVTNTSTTRPGGRSSAPGIPGDAEYDVVIVGAGISGLTTAQALAKQYSDAVPRLLVTEARDCVGGNIITRRDGGYQWEEGPNSFQPSDAVLRAAVDAGVADRLVLGDPKAPAYVYWGGRLRATPSGPDVLTFDLLSLWGKLRAGLGAAGFKAPLPEREESVKEFVTRNLGEEVFQRLIEPFCSGCYCGDPAKLSMKAAFGKVYDLEKGGGSIVGGVLALMKARKQKPPEPRPADLPPKPKGQTVGSFDKGLVTLPSAIAEELGDRVVTGWKLESIDRSGDRFQLTYDTPQGRKKVSARSVALTVPAYTAASLLESRFPKLGKALSSIYYPPVASVALSYPETAILPERLGSDGHLAGFGQLHPRTQGVTTLGTIYASSLFPGRVPEGKVLLLSIFGGATNTRVATMPHGEIVSQVDKDLRKMLIRSDAESPHTVNVTVWPRAIPQFNVGHTDLIQEAKDDLASQGWQGLHLGGNYVAGVALGKCMEAGYKQAAELASHVKSLAT | +++++ (more than 10,000 fold higher tolerance) | +++++ (more than 10,000 fold higher tolerance) | ++++ (1,000-9,999 fold higher tolerance) |
| R140A + A215L + Y422M: ApPPO1 (SEQ ID NO: 1) variant (protein, Synthetic (Protoporphyrinogen IX oxidase (ApPPO1) of Auxenochlorella protothecoides)) MPFTHLKPLNRLLGSPRARHPHVAPQAVSVTNTSTTRPGGRSSAPGIPGDAEYDVVIVGAGISGLTTAQALAKQYSDAVPRLLVTEARDCVGGNIITRRDGGYQWEEGPNSFQPSDAVLRAAVDAGVADRLVLGDPKAPAYVYWGGRLRATPSGPDVLTFDLLSLWGKLRAGLGAAGFKAPLPEREESVKEFVTRNLGEEVFQRLIEPFCSGVYLGDPAKLSMKAAFGKVYDLEKGGGSIVGGVLALMKARKQKPPEPRPADLPPKPKGQTVGSFDKGLVTLPSAIAEELGDRVVTGWKLESIDRSGDRFQLTYDTPQGRKKVSARSVALTVPAYTAASLLESRFPKLGKALSSIYYPPVASVALSYPETAILPERLGSDGHLAGFGQLHPRTQGVTTLGTIYASSLFPGRVPEGKVLLLSMFGGATNTRVATMPHGEIVSQVDKDLRKMLIRSDAESPHTVNVTVWPRAIPQFNVGHTDLIQEAKDDLASQGWQGLHLGGNYVAGVALGKCMEAGYKQAAELASHVKSLAT | +++++ (more than 10,000 fold higher tolerance) | +++++ (more than 10,000 fold higher tolerance) | ++++ (1,000-9,999 fold higher tolerance) |
| R140A + V213C + Y422M: ApPPO1 (SEQ ID NO: 1) variant (protein, Synthetic (Protoporphyrinogen IX oxidase (ApPPO1) of Auxenochlorella protothecoides)) MPFTHLKPLNRLLGSPRARHPHVAPQAVSVTNTSTTRPGGRSSAPGIPGDAEYDVVIVGAGISGLTTAQALAKQYSDAVPRLLVTEARDCVGGNIITRRDGGYQWEEGPNSFQPSDAVLRAAVDAGVADRLVLGDPKAPAYVYWGGRLRATPSGPDVLTFDLLSLWGKLRAGLGAAGFKAPLPEREESVKEFVTRNLGEEVFQRLIEPFCSGCYAGDPAKLSMKAAFGKVYDLEKGGGSIVGGVLALMKARKQKPPEPRPADLPPKPKGQTVGSFDKGLVTLPSAIAEELGDRVVTGWKLESIDRSGDRFQLTYDTPQGRKKVSARSVALTVPAYTAASLLESRFPKLGKALSSIYYPPVASVALSYPETAILPERLGSDGHLAGFGQLHPRTQGVTTLGTIYASSLFPGRVPEGKVLLLSMFGGATNTRVATMPHGEIVSQVDKDLRKMLIRSDAESPHTVNVTVWPRAIPQFNVGHTDLIQEAKDDLASQGWQGLHLGGNYVAGVALGKCMEAGYKQAAELASHVKSLAT | +++++ (more than 10,000 fold higher tolerance) | +++++ (more than 10,000 fold higher tolerance) | ++++ (1,000-9,999 fold higher tolerance) |
| V213C + A215C + Y422I: ApPPO1 (SEQ ID NO: 1) variant (protein, Synthetic (Protoporphyrinogen IX oxidase (ApPPO1) of Auxenochlorella protothecoides)) MPFTHLKPLNRLLGSPRARHPHVAPQAVSVTNTSTTRPGGRSSAPGIPGDAEYDVVIVGAGISGLTTAQALAKQYSDAVPRLLVTEARDCVGGNIITRRDGGYQWEEGPNSFQPSDAVLRAAVDAGVADRLVLGDPKAPRYVYWGGRLRATPSGPDVLTFDLLSLWGKLRAGLGAAGFKAPLPEREESVKEFVTRNLGEEVFQRLIEPFCSGCYCGDPAKLSMKAAFGKVYDLEKGGGSIVGGVLALMKARKQKPPEPRPADLPPKPKGQTVGSFDKGLVTLPSAIAEELGDRVVTGWKLESIDRSGDRFQLTYDTPQGRKKVSARSVALTVPAYTAASLLESRFPKLGKALSSIYYPPVASVALSYPETAILPERLGSDGHLAGFGQLHPRTQGVTTLGTIYASSLFPGRVPEGKVLLLSIFGGATNTRVATMPHGEIVSQVDKDLRKMLIRSDAESPHTVNVTVWPRAIPQFNVGHTDLIQEAKDDLASQGWQGLHLGGNYVAGVALGKCMEAGYKQAAELASHVKSLAT | +++++ (more than 10,000 fold higher tolerance) | +++++ (more than 10,000 fold higher tolerance) | ++++ (1,000-9,999 fold higher tolerance) |
| V213C + A215L + Y422M: ApPPO1 (SEQ ID NO: 1) variant (protein, Synthetic (Protoporphyrinogen IX oxidase (ApPPO1) of Auxenochlorella protothecoides)) MPFTHLKPLNRLLGSPRARHPHVAPQAVSVTNTSTTRPGGRSSAPGIPGDAEYDVVIVGAGISGLTTAQALAKQYSDAVPRLLVTEARDCVGGNIITRRDGGYQWEEGPNSFQPSDAVLRAAVDAGVADRLVLGDPKAPRYVYWGGRLRATPSGPDVLTFDLLSLWGKLRAGLGAAGFKAPLPEREESVKEFVTRNLGEEVFQRLIEPFCSGCYLGDPAKLSMKAAFGKVYDLEKGGGSIVGGVLALMKARKQKPPEPRPADLPPKPKGQTVGSFDKGLVTLPSAIAEELGDRVVTGWKLESIDRSGDRFQLTYDTPQGRKKVSARSVALTVPAYTAASLLESRFPKLGKALSSIYYPPVASVALSYPETAILPERLGSDGHLAGFGQLHPRTQGVTTLGTIYASSLFPGRVPEGKVLLLSMFGGATNTRVATMPHGEIVSQVDKDLRKMLIRSDAESPHTVNVTVWPRAIPQFNVGHTDLIQEAKDDLASQGWQGLHLGGNYVAGVALGKCMEAGYKQAAELASHVKSLAT | +++++ (more than 10,000 fold higher tolerance) | +++++ (more than 10,000 fold higher tolerance) | ++++ (1,000-9,999 fold higher tolerance) |
| R140A + A215C + Y422I: ApPPO1 (SEQ ID NO: 1) variant (protein, Synthetic (Protoporphyrinogen IX oxidase (ApPPO1) of Auxenochlorella protothecoides)) MPFTHLKPLNRLLGSPRARHPHVAPQAVSVTNTSTTRPGGRSSAPGIPGDAEYDVVIVGAGISGLTTAQALAKQYSDAVPRLLVTEARDCVGGNIITRRDGGYQWEEGPNSFQPSDAVLRAAVDAGVADRLVLGDPKAPAYVYWGGRLRATPSGPDVLTFDLLSLWGKLRAGLGAAGFKAPLPEREESVKEFVTRNLGEEVFQRLIEPFCSGVYCGDPAKLSMKAAFGKVYDLEKGGGSIVGGVLALMKARKQKPPEPRPADLPPKPKGQTVGSFDKGLVTLPSAIAEELGDRVVTGWKLESIDRSGDRFQLTYDTPQGRKKVSARSVALTVPAYTAASLLESRFPKLGKALSSIYYPPVASVALSYPETAILPERLGSDGHLAGFGQLHPRTQGVTTLGTIYASSLFPGRVPEGKVLLLSIFGGATNTRVATMPHGEIVSQVDKDLRKMLIRSDAESPHTVNVTVWPRAIPQFNVGHTDLIQEAKDDLASQGWQGLHLGGNYVAGVALGKCMEAGYKQAAELASHVKSLAT | +++++ (more than 10,000 fold higher tolerance) | +++++ (more than 10,000 fold higher tolerance) | ++++ (1,000-9,999 fold higher tolerance) |
